Data set [1] deals with HER2 (Homo sapiens, UniProt P04626). Put plainly: ELISA monitoring of affitin selection against HER2. Type of data set: binding. As to conditions: end of selection process. From the text: (§1) To selectively target HER2 receptor, a library of affitins has been enriched against the target by several consecutive rounds of screening (up to 6 rounds). The enrichment of anti-HER2 afftins has been followed after any selection round by ELISA assay monitoring, also controlling the condition of negligible binding to human (HSA), murine (MSA) and bovine (BSA) serum albumin.
On the technique in general: ELISA stands for enzyme-linked immunosorbent assay.

For data set [2], the system named is human (HSA), murine (MSA) and bovine (BSA) serum albumin. The experiment in a line: ELISA control of binding to serum albumins.
Text: as §1

For data set [3], the system named is MCF-7 breast cancer cell line (low expressing HER2 receptor). Put plainly: Cell internalization assay with Pe38 fusion, cell viability. Type of data set: cell-based, human. As to conditions: Aff03 tested as fusion Aff04-0-Pe38 (SEQ ID NO: 5), different concentrations. As for the experimental part:
(§2) The cells internalization of Aff03 was evaluated using a dedicated cell-based assay. […] Such truncated form (Pe38) needs to be internalized by means of the Aff03 to keep its cytotoxic activity.
(§3) To test internalization, then, the viability of the breast adenocarcinoma cell line SK-BR-3 (overexpressing HER2 receptor) and of the breast cancer cell line MCF-7 (low expressing HER2 receptor) was measured at different nanofitin concentrations.

For data set [4], the system named is SK-BR-3 breast adenocarcinoma cell line (overexpressing HER2 receptor). The description is as above. As to conditions: Aff03 tested as fusion Aff04-0-Pe38 (SEQ ID NO: 5), different concentrations. In kind it is cell-based, human. As for the experimental part:
as §2, §3

B1: Aff03: 64 aac affitin of SEQ ID NO: 1, HER2-binding polypeptide (protein, listed as Sulfolobus acidocaldarius)
chain: VKVKFGHMGEEKEVDTSKIYAVNRAGKFVHFAYDDNGKFGSGSVPEKDAPKELLDMLARAEREK
With B1, the “affinity to HER2” value in data set [1] was “nanomolar affinity”. Besides, the binding to albumin entry in data set [2] is listed as “absence of binding to albumin”. Moreover, the “cytotoxic induction (cell viability) as measure of internalization” value is on record as “no significant alterations” in data set [3] and “dose-dependent cytotoxic induction” in data set [4].

The values are drawn from patent US12686710B2, “Anti-HER2 polypeptides derivatives as new diagnostic molecular probes” (BRACCO IMAGING S.P.A., priority 2019, dated 2026).
